Experimental data published in paper PMC11251093 (iScience, 2024).

Target: SARS-CoV S-6P (SARS-CoV, strain , UniProt P59594, stabilised)
Test: SPR

B1: 6D6 (antibody, V domains shown)
VH: EVQLQQSGAELVKPGASVKLSCTTSGFNIIDTYMHWVKQRPEEGLEWIGGIDPVNGNSEYDPKFQDKATITADTSSNTAYLHLSRLTSEDTAVYYCASAHYYGSSSSFPYWGQGTDLVTVS
VL: DIVMTQSQKFMSTSVGDRVSVTCKASQNVGTHVAWYQQKPGQSPKALIYSASYRYSGVPDRFTGSGVGTDFTLTITNVQSEDLAEYFCQQYNSYFTFGSGTKLEIK
Q: Does B1 bind?
A: binds
